Laboratory results published in patent US8110660B2, “Soluble ENPP4 protein” (Ono Pharmaceutical Co., Ltd., priority 2004, dated 2012).

Assays:
Format in all cases: biochemical
[1] = NPP/PDE activity of soluble type ENPP proteins (pNP-TMP degradation, 405 nm); details: 1 mM pNP-TMP, pH 9.6, 37° C., 2 hours, absorption at 405 nm
Procedure: 400 mL of the culture supernatant of the cells expressing the soluble type human ENPP4 protein was concentrated at 8 times by using Amicon Ultra-15 (fraction molecular weight 10,000, manufactured by Millipore Inc.). The His-Tag-added protein was affinity-purified by using AKTAexplorer 10S (manufactured by Amersham Biosciences Inc.) and His-Trap column (manufactured by Amersham Biosciences Inc.). Samples in the respective purification steps were subjected to SDS-PAGE according to a predetermined method and then the protein was stained by using Simply-Blue-Stain (manufactured by Invitrogen Inc.). […] 40 μL of each of the respective purification steps and purified soluble type human ENPP4-FLAG-His proteins was mixed with 50 μL of assay buffer (20 mM HEPES, 140 mM NaCl, 5 mM KCl, 1 mM CaCl2, 1 mM MgCl2, 10 mM Glucose, pH 9.6, the method of Voltmeter P. et al., Eur. J. Biochem. 270 (2003) 2971-78 was improved) and 10 μL of 10 mM p-nitrophenyl-Thymidine monophosphate (pNP-TMP, Sigma Inc.), and the mixture was kept at 37° C. for 2 hours and then, absorption of light of 405 nm was measured and thereby, p-nitorphenol, which was a degradation product, was measured and, whether the Nucleotide Pyrophosphatase (NPP)/Phospho-Diesterase (PDE) activity existed or not was examined. […]

[2] = PDE/PME activity of soluble type ENPP proteins (pNP-PP or bis-pNPP degradation); details: 0.2 μg protein, 1 mM pNP-PP (ENPP6 also bis-pNPP), pH 9.6, 37° C., 90 min, FIG. 8
Procedure: (§1) 0.2 μg of the purified soluble type ENPP4 protein was mixed in 90 μL of assay buffer (20 mM HEPES, 140 mM NaCl, 5 mM KCl, 1 mM CaCl2, 1 mM MgCl2, 10 mM Glucose, pH 9.6) and 10 μL of 10 mM p-nitrophenyl phenylphosphonate (pNP-PP, manufactured by Sigma Inc.), and was kept at 37° C. for 90 min and then, absorption of light of 405 nm was measured and thereby, the amount of P-nitrophenol was quantitatively determined and, whether the PDE/PME activity existed or not was examined.
as §1, with “ENPP5” for “ENPP4”, “pNP-PP,” for “p-nitrophenyl phenylphosphonate (pNP-PP, manufactured by Sigma Inc.),”, “p-nitrophenol” for “P-nitrophenol”
as §1, with “ENPP6” for “ENPP4”, “pNP-PP or bis-(p-nitrophenyl)phosphate (bis-pNPP),” for “p-nitrophenyl phenylphosphonate (pNP-PP, manufactured by Sigma Inc.),”, “p-nitrophenol” for “P-nitrophenol”

[3] = Bivalent cation requirement of soluble type ENPP proteins (PDE/PME activity); details: MgCl2 and CaCl2 1 mM vs no additive vs EDTA 1 mM, pNP-PP, FIG. 9
Procedure: (§2) 0.2 μg of the purified soluble type ENPP4 protein was mixed in 90 μL of assay buffer (20 mM HEPES, 140 mM NaCl, 5 mM KCl, 10 mM Glucose, pH 9.6), 10 μL of 10 mM pNP-PP, and (1) 1 mM final concentration of MgCl2 and CaCl2, (2) no additive, or (3) 1 mM final concentration of EDTA, and then was kept at 37° C. for 90 min and then, absorption of light of 405 nm was measured and thereby, the increase or decrease of the PDE/PME activity by removing bivalent cations was examined.
as §2, with “ENPP5” for “ENPP4”, “examined. […] It has been thought that a certain cation except for calcium and magnesium ions is bonded to the purified soluble type ENPP5 protein because the activity decreases in the EDTA-adding sample and increases in the no-additive sample. […]” for “examined.”

B1: soluble type ENPP4 protein: extracellular region of human ENPP4 with FLAG tag and 6×His tag at the C terminal, expressed in HEK293T cells, purified (protein, UniProt Q9Y6X5 16-407, looked up)
extracellular domain: FRSDSSSSLPPKLLLVSFDGFRADYLKNYEFPHLQNFIKEGVLVEHVKNVFITKTFPNHYSIVTGLYEESHGIVANSMYDAVTKKHFSDSNDKDPFWWNEAVPIWVTNQLQENRSSAAAMWPGTDVPIHDTISSYFMNYNSSVSFEERLNNITMWLNNSNPPVTFATLYWEEPDASGHKYGPEDKENMSRVLKKIDDLIGDLVQRLKMLGLWENLNVIITSDHGMTQCSQDRLINLDSCIDHSYYTLIDLSPVAAILPKINRTEVYNKLKNCSPHMNVYLKEDIPNRFYYQHNDRIQPIILVADEGWTIVLNESSQKLGDHGYDNSLPSMHPFLAAHGPAFHKGYKHSTINIVDIYPMMCHILGLKPHPNNGTFGHTKCLLVDQWCINLPEA
modifications: extracellular domain C-terminal FLAG and 6xHis tags
notes: extracellular region of human ENPP4 with FLAG tag and 6×His tag at the C terminal, expressed in HEK293T cells, purified
- NPP/PDE activity [1]: NPP/PDE activity was detected
- PDE/PME activity [2]: has the PDE/PME activity
- bivalent cation requirement [3]: does not require bivalent cations
